Legend:
[1] = target: T1, BCMA-Fc recombinant protein (human, UniProt Q02223 1-54); assay: flow cytometry: lentivirally transduced CAR-T cells stained with 5 µg/ml BCMA-Fc, detected with anti-human IgG Fc (FIG. 17B)
T1 construct: Soluble staining reagent, 5 µg/ml; not shown: Fc part
T1 sequence (looked up): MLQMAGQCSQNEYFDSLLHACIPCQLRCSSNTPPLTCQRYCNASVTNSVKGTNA

[2] = target: T2, CD123-Fc recombinant protein (human, UniProt P26951 19-305); assay: FACS staining of CAR-T cells with CD123-Fc recombinant protein (FIG. 28)
T2 construct: Soluble staining reagent; also called CD123-Fc protein; not shown: Fc part
T2 sequence (looked up): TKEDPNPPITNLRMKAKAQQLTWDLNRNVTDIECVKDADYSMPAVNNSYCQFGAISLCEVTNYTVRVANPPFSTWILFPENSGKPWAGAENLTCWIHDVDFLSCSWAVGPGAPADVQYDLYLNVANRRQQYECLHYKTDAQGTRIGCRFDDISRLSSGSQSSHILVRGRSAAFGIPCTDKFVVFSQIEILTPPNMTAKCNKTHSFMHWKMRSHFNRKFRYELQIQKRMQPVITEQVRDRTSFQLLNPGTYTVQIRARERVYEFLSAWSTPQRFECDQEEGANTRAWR

B1: anti-BCMA scFv BCMA33 (scFv)
scFv: QSALTQPPSASGSPGQSVTISCTGTSSDVGGYNYVSWYQQHPGKAPKLMIYEVSKRPSGVPDRFSGSKSGNTASLTVSGLQAEDEADYFCSSYAGSNNFVVFGGGTKLTVLGGGGSGGGGSGGGGSEVQLVESGGGLVQPGRSLRLSCAASGFTFDDYAMHWVRQAPGKGLEWVSGISWNSGSIGYADSVKGRFTISRDNAKNSLYLQMNSLRAEDTALYYCAKVGASAALGAFDIWGQGTMVTVSS
notes: also called BCMA33 scFv; BCMA33 CAR
Does B1 bind [1]?
Result: binds

B2: anti-BCMA scFv BCMA34 (scFv)
scFv: QPGLTQPPSVSKGLRQTATLTCTGNSNNVGNQGAAWLQQHQGHPPKLLSYRNNNRPSGISERFSASRSGNTASLTITGLQPEDEADYYCSAWDSSLSARVFGGGTKLTVLGGGGSGGGGSGGGGSQVQLVQSGAEVKKPGASVKVSCKTSGYTFSNPFVHWVRQAPGQGLEWVGIINLSGGDTLYAQKFQGGVTMTRDTSTNTAYMELTSLTFEDTAVYYCARDQAGFGDSAYWGQGTLVTVSS
notes: also called BCMA34 scFv; BCMA34 CAR
Does B2 bind [1]?
Result: binds

B3: anti-BCMA scFv BCMA22 (scFv)
scFv: QSALTQPASVSGSPGQSITISCTGTSSDVGGYNYVSWYQQHPGKAPKLMIYEVTNRPSGVSNRFSGSKSGNTASLTISGLQAEDEAHYYCISYTSSSTLDYVFGTGTKVTVLGGGGSGGGGSGGGGSEVQLVESGPGLVKPSGTLSLTCAVSGGSISSSNWWSWVRQPPGKGLEWIGEIYHSGSTNYNPSLKSRVTISVDKSKNQFSLKLSSVTAADTAVYYCARVGSGYSYGYGDRVLDYWGQGTLVTVSS
notes: also called BCMA22 scFv; BCMA22 CAR
Does B3 bind [1]?
Result: binds

B4: anti-BCMA scFv BCMA23 (scFv)
scFv: QSALTQPPSASGTPGQRVTISCSGSSPNIGGNSVNWYQQLPGTAPKLLMYTNNQRPSGVPDRFSGSKSGTSASLAISGLQSEDEADYYCAAWDDSLNGVVFGGGTKLTVLGGGGSGGGGSGGGGSQVQLVQSGAEVKKPGESLKISCKGSGYSFTSYWIGWVRQMPGKGLEWMGIIYPGDSDTRYSPSFQGQVTISADKSISTAYLQWSSLKASDTAMYYCARRGGALDYWGQGTLVTVSS
notes: also called BCMA23 scFv; BCMA23 CAR
Does B4 bind [1]?
Result: binds

B5: anti-BCMA scFv BCMA24 (scFv)
scFv: QSVLTQPPSASGTPGQRVTISCSGSSSNIGSYSVNWYQQIPGTAPKLLIYSNNQRPSGVPDRFSGSKSGTSASLAISGLQSEDEADYSCAAWDDSLNGVVFGGGTKLTVLGGGGSGGGGSGGGGSQVQLVQSGAEVKKPGSSVKVSCKASGGTFSSYAISWVRQAPGQGLEWMGGIIPIFGTANYAQKFQGRVTITADESTSTAYMELSSLRSEDTAVYYCARGSFYSSVNVWGQGTTVTVSS
notes: also called BCMA24 scFv; BCMA24 CAR
Does B5 bind [1]?
Result: binds

B6: anti-BCMA scFv BCMA27 (scFv)
scFv: QSALTQPPSASGSPGQSVTISCTGSRSNVGSYNDVSWYQQHPGKAPKLIIYDVDKRPAGVPDRFSGSKSGNTASLTVSGLQAEDDADYYCSSYGGTYSLFVFGTGTELTVLGGGGSGGGGSGGGGSEVQLVESGGDLVQPGGSLRLSCAASGFTFSSYGMHWVRQAPGKGLEWVAVISYDGSNKYYADSVKGRFTISRDNSKNTLYLQMNSLRAEDTAVYYCAKEEFYGDSSYGMDVWGQGTTVTVSS
notes: also called BCMA27 scFv; BCMA27 CAR
Does B6 bind [1]?
Result: binds

B7: anti-BCMA scFv BCMA28 (scFv)
scFv: QSALTQPPSVSEAPRQRVTISCSGSSSNIGQNAVNWYQKLPGKAPKLLIYYNDLVSSGVSDRFSGSKSGTSASLAISGLQSEDEADYYCATWDDSLNGVVFGGGTKVTVLGGGGSGGGGSGGGGSQVQLVQSGPGLVKPSQTLSLTCAISGDSVSSNSAAWNWIRQSPSRGLEWLGRTYYRSKWYNDYAVSVKSRITINPDTSKNQFSLQLNSVTPEDTAVYYCARDYYYGMDVWGQGTTVTVSS
notes: also called BCMA28 scFv; BCMA28 CAR
Does B7 bind [1]?
Result: binds

B8: anti-CD123 scFv-C27 (scFv)
scFv: EIVLTQSPGTVSLSPGERATLSCRASQRVSATYLAWYQQKPGQAPRLLMYGGSRRATGIPDRFSGSGSGTDFTLTIRRLEPEDSAVYYCQQYGSSPLTFGGGTKLEIKGGGGSGGGGSGGGGSQVQLVQSGSELKKPGASVKVSCKASGYTFTSYGISWVRQAPGQGLEWMGWISAYNGNTNYAQKLQGRVTMTTDTSTSTAYMELRSLRSDDTAVYYCARDPYDDYGGNSRDEEDAFDIWGQGTTVTVSS
notes: also called C27 scFv
Does B8 bind [2]?
Result: binds

B9: anti-CD123 scFv-C30 (scFv)
scFv: AIRLTQSPSSLSASVGDRVTITCQASQNINNYLNWYQQKSGKAPKLLIYDASNLEAGVPSRFSGSASGTDFTFTISSLQPEDIATYYCQQNDNLPLTFGQGTRLEIKGGGGSGGGGSGGGGSEVQLVESGGGVVRPGGSLRLSCAASGFTFGDYGMSWVRQAPGKGLEWVSGINWNGGSTGYADSVKGRFTISRDNAKNSLYLQMNSLRAEDTALYYCARDRAPDYGDYLQVGTTDYWGQGTLVTVSS
notes: also called C30 scFv
Does B9 bind [2]?
Result: binds

B10: anti-BCMA scFv BCMA30 (scFv)
scFv: DIQMTQSPSFLSASVGDRVTITCRASQGISSYLAWYQQKPGKAPKLLIYAASTLQSGVPSRFSGSGSGTEFTLTISSLQPEDFATYYCQQLNSYPPWTFGQGTKVEIKGGGGSGGGGSGGGGSQVQLVQSGAEVKKPGESLKISCKGSGYRFTSYWIGWVRQMPGKGLEWMGIIYPGDSDTRYSPPFQGQVTISADKSIDTAYLQWSSLKASDTAMYYCARLDASGSQRGGMDVWGQGTTVTVSS
notes: also called BCMA30 scFv; BCMA30 CAR
Does B10 bind [1]?
Result: binds

B11: anti-CD123 scFv-C32 (scFv)
scFv: QSVVTQPPSASGTPGQRVTISCSGSSSNIEGNTVSWYQQFPGAAPKLLIYSNSYRASGVPDRFSGSKSGTSASLAISELQSEDEADYYCSAWDDSLNGPVFGGGTKVTVLGGGGSGGGGSGGGGSEVQLVESGGGLVQPGGSLRLSCAASGFTFTSYAMNWVRQAPGKGLEWVSDISSSSSYIYYADSVKGRFTISRDNAKNSLYLQMNSLRAEDTAVYYCARDLYSGYDYGYYYGMDVWGQGTTVTVSS
notes: also called C32 scFv
Does B11 bind [2]?
Result: binds

B12: anti-CD123 scFv-C33 (scFv)
scFv: DIRLTQSPSSLSASVGDTITITCRASQDISSWIAWYQQKPGTAPRLLIYAASSLQSGVPSRFSGSGSGTDFTLTINSLHPEDFATYYCQQGSTFPLAFGGGTKVEIKGGGGSGGGGSGGGGSQVQLVQSGAEVKKPGSSVKVSCKASGGTFSSYAISWVRQAPGQGLEWMGGIIPIFGTANYAQKFQGRVTITADESTSTAYMELSSLRSEDTAVYYCARGLDNWNDVGWFDPWGQGTLVTVSS
notes: also called C33 scFv
Does B12 bind [2]?
Result: binds

B13: anti-CD123 scFv-C34 (scFv)
scFv: QSALTQPPSASGSPGQSVTISCTGTRSDVGAYNYVSWYQHHPGKAPKLMLYDVSKRPSGVSDRFSGSKSGNTASLTVSGLQSEDEANYYCSSYAGSGKYVFGSGTELTVLGGGGSGGGGSGGGGSEVHLVESGGGLVKPGGSLRLSCAASGFTFSDTWMSWVRQAPGKGLEWVGRIKSKTDGGTTNYAAPVKGRFTISRDDSKTTLFLQMNSLKTEDTAVYYCTGGDYPLFAYWGQGALVTVSS
notes: also called C34 scFv
Does B13 bind [2]?
Result: binds

B14: anti-BCMA scFv BCMA31 (scFv)
scFv: QSALTQPPSASGSPGQSVTISCTGTSSDVGTYNYVSWYQQHPGKAPKLMIYDVNQRPSGVPDRFSGSKSGNTASLTVSGLQAEDEADYYCSSYGGSNNLVFGGGTKVTVLGGGGSGGGGSGGGGSEVQLVESGGGLIQPGGSLRLSCAASGFTFSSYWMSWVRQSPGKGLEWVANIKPDGSDKYYVDSVKGRFTISRDNAKNSLDLQMNSLRGEDTAIYYCARGATTYGSWGQGTLVTVSS
notes: also called BCMA31 scFv; BCMA31 CAR
Does B14 bind [1]?
Result: binds

B15: anti-BCMA scFv BCMA32 (scFv)
scFv: QSALTQPASVSGSPGQSITISCTGTSSDVGGYNYVSWYQQHPGKAPKLMIYDVSKRPSGVSNRFSGSKSGNTASLTISGLQAEDEADYYCSSYTSSSTVVFGGGTKLTVLGGGGSGGGGSGGGGSQVQLQESGAEVKKPGSSVKVSCKASGGTFSRYAISWVRQAPGQGLEWMGGIIPFFGTSDYAQKFQGRVTITADESTSTAYMDLSRLRSEDTAVYYCAVRVATTGTGFYYAMDVWGQGTTVTVSS
notes: also called BCMA32 scFv; BCMA32 CAR
Does B15 bind [1]?
Result: binds

Reference: US20250144213A1 (UTC THERAPEUTICS SHANGHAI, published 2025)
